Data published in US20230374088A1 (GENERAL HOSPITAL, published 2023).
One block for each binder: values may come before it.

How the values were obtained:
GST-Kif7-CC (460-600aa) = biological target: T1, GST-Kif7-CC (460-600aa) (human, UniProt Q2M1P5 460-600); assay: BLI association step, GST-Kif7-CC on the sensor, soluble truncation at 125 nM [panel C]
T1 construct: held on the BLI sensor through the GST tag; also called Kif7 coiled-coil domain; coiled-coil dimerization domain fragment of Kif7; not shown: N-terminal GST tag (HRV protease cleavable, modified pGEX vector)
T1 sequence: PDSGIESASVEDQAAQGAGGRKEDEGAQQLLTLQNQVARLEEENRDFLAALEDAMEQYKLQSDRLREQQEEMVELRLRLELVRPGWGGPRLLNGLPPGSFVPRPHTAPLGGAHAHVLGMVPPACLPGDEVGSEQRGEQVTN
Method: Equilibrium dissociation constants Kd (shown in parenthesis) were determined by fitting complete binding curves to Hill equation (See FIG. 10C). See also FIGS. 10A, 10B & 10C. Data is representative trace of a minimum of three repeats.
BLI experiments were performed in an Octet Red 96 instrument (ForteBio). To quantify Kif7-Gli2 binding, Experiments were performed in an assay buffer containing 40 mM TRIS pH7.3, 40 mM KCl, 40 μM ATP 1 mM MgCl₂, 0.12% tween and 0.5 mM TCEP. In the simplest assay, dimeric GST-Kif7-CC at a concentration of 120 nM is immobilized on an anti-GST biosensor chip. Unbound Kif7 is washed away with buffer, and the chips are then dipped into buffer with a range of Gli2-ZF concentrations from 0-1 μM to allow for association of the two proteins. After 300 seconds, they are then moved back into a well with just buffer to allow dissociation for 400 seconds. The equilibrium response of each sensor from three independent repeats at each Gli2 concentration were normalized and plotted against Gli2 concentration and fitted with a Hill function to obtain a Kₜ. […] The assays were also performed with HIS-tagged Kif7-DM and the Kif7-Kif27 chimeric proteins, requiring the use of an anti-penta-HIS biosensor chip, and referencing sensors to account for non-specific binding of Gli2 to the HIS sensor. A flipped assay, using HIS-tagged Gli2 on the sensor and a range of Kif7 concentrations in buffer, was also conducted.

[1] = biological target: T2, Gli2-ZF (418-604aa; zinc finger domain of Gli2) (human, UniProt P10070 418-604); assay: BLI; GST-Kif7-SCC on sensor, Gli2-ZF as analyte, Hill fit
T2 construct: Expressed with an HRV-cleavable N-terminal 6xHis tag, cleaved 'if needed'; also called Gli-ZF
T2 sequence (looked up): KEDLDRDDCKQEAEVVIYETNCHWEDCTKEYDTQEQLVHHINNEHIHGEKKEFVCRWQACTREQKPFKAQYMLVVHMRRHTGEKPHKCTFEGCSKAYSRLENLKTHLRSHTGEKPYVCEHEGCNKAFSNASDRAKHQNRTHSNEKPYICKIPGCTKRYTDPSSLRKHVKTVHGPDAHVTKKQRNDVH

[2] = biological target: T3, GMPCPP-stabilized microtubules (porcine, UniProt P02554 1-445); assay: TIRF microscopy, GFP intensity on microtubules, no Gli2-ZF
T3 construct: Polymer of tubulin heterodimers; in TIRF partly labeled with X-rhodamine/HiLyte 647 and biotin; also called MT; GMPCPP-microtubule lattice

Gli2-ZF-SNAP = biological target: T4, Gli2-ZF-SNAP (human, UniProt P10070 418-604, Alexa 647 dye on the SNAP tag in the TIRF assays); assay: TIRF microscopy; 100 nM Gli2-ZF-SNAP-Alexa647 with 100 nM kinesin on microtubules
T4 construct: Labeled with Alexa 647 for TIRF microscopy; used unlabeled (as far as told) for cryo-EM; also called Gli2-ZF-SNAP-Alexa 647; Gli2-ZF-Alexa 647; not shown: C-terminal SNAP tag
T4 sequence (looked up): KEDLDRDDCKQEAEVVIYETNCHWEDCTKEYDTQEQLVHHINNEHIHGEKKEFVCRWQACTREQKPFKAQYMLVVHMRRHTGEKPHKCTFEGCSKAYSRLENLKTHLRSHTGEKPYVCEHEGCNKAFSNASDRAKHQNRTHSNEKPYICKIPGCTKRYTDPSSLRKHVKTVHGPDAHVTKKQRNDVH
Text: Briefly, fluorescently labeled (Rhodamine/HiLyte-647) and biotinylated microtubule seeds, polymerized with the non-hydrolyzable GTP analog GMPCPP, were immobilized on a glass coverslip through neutravidin-biotin linkages (FIG. 4A). GMPCPP was chosen as it mimics the GTP-form of tubulin present at microtubule ends (Jiang et al., Developmental cell, 49, 711-730. e8 2019). […] A Gli2 control was used to measure non-specific binding of Gli2-ZF to microtubules. Single molecule photobleaching of purified Kif7-DM confirmed that it is a dimer (FIGS. 11A-D).
To address which of the two Gli-interaction sites of Kif7 plays a role in modulating Kif7 microtubule binding, we generated two chimeric proteins where we swapped either the motor and neck-linker (M) or the coiled-coil (CC) domains of Kif7 and Kif27 (Kif7M-Kif27CC and Kif27M-Kif7CC) (FIG. 5E). […] The binding affinity for each of the two Gli interaction sites on Kif7-DM could be determined using BLI (FIG. 12H). We compared the two chimeras to Kif7-DM in TIRF microscopy-based microtubule binding assay. […] Next, we compared how the microtubule binding of the chimeras were regulated by Gli with respect to Kif7-DM.

T3 sequence (P02554 whole entry): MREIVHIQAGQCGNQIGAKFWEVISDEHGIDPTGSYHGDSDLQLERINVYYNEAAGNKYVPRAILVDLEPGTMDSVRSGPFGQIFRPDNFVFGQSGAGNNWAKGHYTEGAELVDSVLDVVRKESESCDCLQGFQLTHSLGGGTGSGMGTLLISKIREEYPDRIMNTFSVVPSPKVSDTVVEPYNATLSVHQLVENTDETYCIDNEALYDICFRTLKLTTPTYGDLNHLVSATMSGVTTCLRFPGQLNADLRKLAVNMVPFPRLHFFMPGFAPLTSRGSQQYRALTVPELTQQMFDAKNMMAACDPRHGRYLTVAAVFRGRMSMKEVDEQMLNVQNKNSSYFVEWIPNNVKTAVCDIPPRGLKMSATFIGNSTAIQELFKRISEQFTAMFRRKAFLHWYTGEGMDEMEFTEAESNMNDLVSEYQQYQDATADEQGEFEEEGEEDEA

- binding result (GST-Kif7-CC (460-600aa)): no binding (tested: 125 nM)
B1: ZF1-2 (418-497) (other, human, UniProt P10070 418-497, looked up)
Gli2 zinc-finger truncation: KEDLDRDDCKQEAEVVIYETNCHWEDCTKEYDTQEQLVHHINNEHIHGEKKEFVCRWQACTREQKPFKAQYMLVVHMRRH
notes: One of the three truncations of the group m9; also called Gli2-ZF truncation ZF1-2

- Kd [1]: 69 nM
B2: GST-Kif7-SCC (481-543aa) (other)
chain: KEDEGAQQLLTLQNQVARLEEENRDFLAALEDAMEQYKLQSDRLREQQEEMVELRLRLELVRP
notes: The limits of the results section are used; also called shorter coiled-coil segment of Kif7-CC; not shown: GST tag, by the name GST-Kif7-SCC

- fold binding to microtubules compared to Kif7-DM (GFP intensity) [2]: ~3 fold
- fold decrease in Gli recruitment on microtubules compared to Kif7-DM (Alexa-647 intensity per GFP intensity) (Gli2-ZF-SNAP): 2 fold
B3: Kif27M-Kif7CC chimera (other, human)
chain: MEEIPVKVAVRIRPLLCKEALHNHQVCVRVIPNSQQVIIGRDRVFTFDFVFGKNSTQDEVYNTCIKPLVLSLIEGYNATVFAYGQTGSGKTYTIGGGHIASVVEGQKGIIPRAIQEIFQSISEHPSIDFNVKVSYIEVYKEDLRDLLELETSMKDLHIREDEKGNTVIVGAKECHVESAGEVMSLLEMGNAARHTGTTQMNEHSSRSHAIFTISICQVHKNMEAAEDGSWYSPRHIVSKFHFVDLAGSERVTKTGNTGERFKESIQINSGLLALGNVISALGDPRRKSSHIPYRDAKITRLLKDSLGGSAKTVMITCVSPSSSNFDESLNSLKYANRARNIRNKPTVNFSPESDRIDEMEFEIKLLREALQSQQAGVSQTTQINREGSPDTNRIHSLEEQVAQLQGECLGYQCCVEEAFTFLVDLKDTVRLNEKQQHKLQEWFNMIQEVRKAVLTSFRGIGGTASLEEGPQHVTVPDSGIESASVEDQAAQGAGGRKEDEGAQQLLTLQNQVARLEEENRDFLAALEDAMEQYKLQSDRLREQQEEMVELRLRLELVRPGWGGPRLLNGLPPGSFVPRPHTAPLGGAHAHVLGMVPPACLPGDEVGSEQRGEQVTN
notes: range 1-475; not shown: HIS tag (used for BLI); GFP tag

- binding result (GST-Kif7-CC (460-600aa)): no binding (tested: 125 nM)
B4: ZF3-5 (500-604) (other, human, UniProt P10070 500-604, looked up)
Gli2 zinc-finger truncation: EKPHKCTFEGCSKAYSRLENLKTHLRSHTGEKPYVCEHEGCNKAFSNASDRAKHQNRTHSNEKPYICKIPGCTKRYTDPSSLRKHVKTVHGPDAHVTKKQRNDVH
notes: residues 500-604; One of the three truncations of the group m9; also called Gli2-ZF truncation ZF3-5
